Amount associated with β2^FLAG relative to wildtype γ2L^HA data for 3 substances are collected here from publication PMC4169075.

The target in this test is GABAA receptor β2 subunit, FLAG-tagged (β2^FLAG) (human) (UniProt P47870). Put plainly: co-IP.
Substance “GABAA receptor γ2L(R82Q) subunit, HA-tagged (γ2L(R82Q)^HA)” returned an amount associated with β2^FLAG relative to wildtype γ2L^HA of 0.47.
“GABAA receptor γ2L(P83S) subunit, HA-tagged (γ2L(P83S)^HA)”: the amount associated with β2^FLAG relative to wildtype γ2L^HA was 0.71.
Turning to “GABAA receptor γ2L(N79S) subunit, HA-tagged (γ2L(N79S)^HA)”, the amount associated with β2^FLAG relative to wildtype γ2L^HA came to 0.94.
